The source of these data is US20220175942A1.

Test in all cases: -; previously described evasin
Assay [1] addresses CCL3L1_HUMAN.
For assay [2], the target named is CXCL1_HUMAN.
Assay [3] has as its target CCL7_HUMAN.
Assay [4] deals with CCL23_HUMAN.
Assay [5] addresses CCL21_HUMAN.
In assay [6] the target is CCL24_HUMAN.
Assay [7] has as its target CCL14_HUMAN.
The target of assay [8] is CCL16_HUMAN.
For assay [9], the target named is CCL26_HUMAN.

The term Kd denotes the equilibrium constant for the complex coming apart. Low readings indicate tighter binding, high ones weaker binding.

In assay [1], EVASIN1 had a Kd of 0.05 nM.

With EVASIN3, in [2], the Kd was 0.85 nM.

On to EVASIN4, for which the dissociation constant (Kd) in assay [3] is 0.7 nM; in [4] it was 4.43 nM; in assay [5], 0.01 nM; in assay [6], 0.41 nM; in [7], 0.14 nM; in assay [8] it was 0.26 nM. The substance further showed a Kd in [9] of 0.88 nM.
